In PMC6602295, “Structural mechanism for guanylate-binding proteins (GBPs) targeting by the Shigella E3 ligase IpaH9.8” (PLoS Pathogens, 2019):

Molecular target: T1, GBP1^LG-MD (LG-MD region of guanylate-binding protein 1, residues 1-479) (human, UniProt P32455 1-479)
T1 construct: also called C-terminally truncated GBP1; source: E. coli BL21(DE3), purified (Ni-NTA, ULP1 cleavage, second Ni-NTA, Superdex 200); not shown: His6-SUMO, N-terminal, cleaved
T1 sequence: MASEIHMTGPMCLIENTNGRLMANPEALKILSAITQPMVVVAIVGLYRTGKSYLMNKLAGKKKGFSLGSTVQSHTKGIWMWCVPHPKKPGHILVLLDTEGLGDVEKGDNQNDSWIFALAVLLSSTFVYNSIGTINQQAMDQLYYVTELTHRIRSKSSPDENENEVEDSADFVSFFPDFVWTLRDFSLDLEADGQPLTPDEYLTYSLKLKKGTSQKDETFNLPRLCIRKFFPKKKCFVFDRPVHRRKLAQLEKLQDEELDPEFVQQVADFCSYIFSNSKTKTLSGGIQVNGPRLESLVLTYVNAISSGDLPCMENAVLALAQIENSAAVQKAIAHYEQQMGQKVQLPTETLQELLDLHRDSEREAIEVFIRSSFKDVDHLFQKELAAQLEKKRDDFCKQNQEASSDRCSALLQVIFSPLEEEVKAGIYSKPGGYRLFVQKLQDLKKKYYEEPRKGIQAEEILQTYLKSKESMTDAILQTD
Assay: crystal structure; purified IpaH9.8^LRR and GBP1^LG-MD incubated overnight on ice at a 1.5:1 molar ratio, passed through Superdex 200 (25 mM Tris-HCl pH 8.0, 20 mM NaCl, 2 mM DTT), no nucleotide; crystals at 20°C in 1.6 M sodium/potassium phosphate pH 6.5; 3.6 Å
Settings: both partners purified

B1: IpaH9.8^LRR (Leucine-rich repeat domain of IpaH9.8, residues 22-252) (domain or fragment)
chain: TYADYFSAWDKWEKQALPGEERDEAVSRLKECLINNSDELRLDRLNLSSLPDNLPAQITLLNVSYNQLTNLPELPVTLKKLYSASNKLSELPVLPPALESLQVQHNELENLPALPDSLLTMNISYNEIVSLPSLPQALKNLRATRNFLTELPAFSEGNNPVVREYFFDRNQISHIPESILNLRNECSIHISDNPLSSHALPALQRLTSSPDYHGPRIYFSMSDGQQNTLHR
notes: E3 ubiquitin ligase IpaH9.8, Shigella flexneri, LRR domain, residues 22-252; source: E. coli BL21(DE3), purified (Ni-NTA, ULP1 cleavage, second Ni-NTA, Superdex 200); not shown: His6-SUMO, N-terminal, cleaved
binding result: binds
